From the DeepSol protein solubility set

Assay: soluble on expression in E. coli; label from the status in PepcDB or PDB records
For “MMYQDVVRSRRSVRDFMPDVEIPKEELMAIIEEAMFAPNSTNLNSWRFLIVTEKEQKEALYEVSMQQPAVKGAAAVIILLGDLTAYTVANADEISAKAVAQGTMTEEIRQGINENVSWYYDVSEEQKREWLMLDQGLVAMQLMLSAKDRGYDTVAMSGFETEAVRKLFNIEDHLVNGLIIPIGKAQTPGFETVRRDVSEVVTWLD”, the “soluble on expression in E. coli” value was “not soluble”. In the case of “MNANYVSKKPYIVTIACTKGGSAKSTNAANIGAFCADHGLRTLLIDTDTQPTLSSYYSLAKTAPGGIYEFLLQRDVEPSHIVSQTSIKNLDLIQSNDPSNNVSHMLRNAPDGSIRFSHLIKSINNYDVIVIDTRGTRDITVDMSVLAADILFCPILPQILSAKEFIRGTIGMYQDLQTFESFGFKLPPLKAIANGVDNTNDVKFVMQKLHTLFANTFDESKTLLDFSIPYHVAYREAVTYALPVYRHSAVEYPVMQQLCCLLLPQFKENFEKPMQRGLEHHHHHH”, the “soluble on expression in E. coli” value is reported as “soluble”. With “MNATPASADDLIVIGKIYSVHGVRGEVKVYSFTDPIGNLLDYKTWTLRREGSVEKQVELVSGRLQSKFLVVKLKGLDDREEARLLSGYEICVPRNLFPDLDDGEYYWYQLEGLKVIDQLGQLLGKIDHLLETGSNDVMVVKPCAGSLDDRERLLPYTEQCVLAIDMAAGEMKVEWDADFLEHHHHHH” the “soluble on expression in E. coli” value was “soluble”. For “MNDHTAAIAAHFDQLAPNLDRWRRRNRTYYRDLEKLHRFWIPTGSRVLQVGSGLGDLLATVEPSFGIGIDVSPQAVAIAQQRHPQLQFHCLAAEELTPEAIGNPEPFDAIILTGVLSYLTDIQVVLEQLQAFCHPRTRLILGFHNFLWQPLLTAAEKVGQRSPQPPESWLGMQDVLNLLTLTGYEPIKQGLEHHHHHH”, the “soluble on expression in E. coli” value was “soluble”. For “MNDSIDDDFPPEPRGRCYTWPMQQYIYQESSATIPHHHLNQHNNPYHPMHPHHQLPHMQQLPQPLLNLNMTTLTSSGSSVASSIGGGAQCSPCASGSSTAATNSSQQQQTVGQMLAASVPCSSSGMTLGMSLNLSQGGGPMPAKKKRCRKKPTDQLAQKKPNPWGEESYSDIIAKALESAPDGRLKLNEIYQWFSDNIPYFGERSSPEEAAGWKNSIRHNLSLHSRFMRIQNEGAGKSSWWVINPDAKPGRNPRRTRERSNTIETTTKAQLEKSRRGAKKRIKERALMGSLHSTLNGNSIAGSIQTISHDLYDDDSMQGAFDNVPSSFRPRTQSNLSIPGSSSRVSPAIGSDIYDDLEFPSWVGESVPAIPSDIVDRTDQMRIDATTHIGGVQIKQESKPIKTEPIAPPPSYHELNSVRGSCAQNPLLRNPIVPSTNFKPMPLPGAYGNYQNGGITPINWLSTSNSSPLPGIQSCGIVAAQHTVASSSALPIDLENLTLPDQPLMDTMDVDALIRHELSQAGGQHIHFDL”, the “soluble on expression in E. coli” value was “not soluble”. For “MNDSSVIYRAIVTSKFRTEKMLNFYNSIGSGPDKNTIFITFGRSEPWSSNENEVGFAPPYPTDSVLGVTDMWTHMMGTVKVLPSMLDAVIPRRDWGDTRYPDPYTFRINDIVVCNSAPYNATESGAGWLVYRCLDVPDTGMCSIASLTDKDECLKLGGKWTPSARSMTPPEGRGDAEGTIEPGDGYVWEYLFEIPPDVSINRCTNEYIVVPWPEELKEDPTRWGYEDNLTWQQDDFGLIYRVKANTIRFKAYLDSVYFPEAALPGNKGFRQISIITNPLEAKAHPNDPNVKAEKDYYDPEDLMRHSGEMIYMENRPPIIMAMDQTEEINILFTF”, the “soluble on expression in E. coli” value was “soluble”. In the case of “MNDVDVLVVGAGALGLACAARLAEAGHGVLVAERERLVGSHTSSRNSEVIHAGLYYPPGSLKADLCLEGRERLYAWCARHGVGHRRIGKLLVAVEENERERLQALAANARACGVDDLMPLDGTTLRALEPQVRGVAALLSPSTGIIDSHAYLQSLQAVAERHGAQLALDTRVDRLERHAGGWRAEGQSVGEAFRLRAGWVVNAGGLFAQALAQRTEGLDPRLVPALHLCQGRYFSYSGRSPFRHLVYPMPEARTAGLGIHATLDLGGQLRFGPDVNYVDNLDYRVDESLRPAFAQVISRYFPGIDPRRLAAGYAGIRPKLGGPGEPAADFIIQTPAEHGLPGLVNLFGIESPGLTASLALAERVARALLEHHHHHH”, the “soluble on expression in E. coli” value is reported as “not soluble”. For “MNDYSTTRDRVEHYFDRTATHTWERLTSSAPVSRIRQTVREGRDTMRAKMLWRLPKDLTGLRVLDAGCGAGQMTAELAARGAQVMAVDISPQLVEIARKRLPPEHQDRVTFASGDMLADDLGRFDYVVAMDSLIYYTDADIAAALDRLGARTRHSVVFTVAPRTPFLMAFWTMGKLFPRSDRSPVMIPHPFQPLNEATGGRLVKVGRVSRGFYISECLEFRPLEHHHHHH”, the “soluble on expression in E. coli” value was “not soluble”.
